Experimental data reported in patent publication US20250122278A1, “ANTI-INTERLEUKIN-9 ANTIBODY AND USE THEREOF” (GUANGDONG KEGUANDA PHARMACEUTICAL TECHNOLOGY CO., LTD., priority 2022, published 2025).
Positions count from the first letter of the chain named.

B1: VH3+VL4: humanized antibody, VH SEQ ID NO: 28, VL SEQ ID NO: 33 (antibody, V domains shown)
VH: EVQLVQSGAEVMKPGASVKVSCKATGYTFTGYWIEWVRLAPGQGLEWMGEILPGSGSTNYNQKLQGRVTFTADTSTNTAYMELRSLRSDDTAIYYCARRTYYYGIPEDYWGQGTLVTVSS
VL: DIVMTQSPKFLSASVGDRVTITCKASQNVGTNVAWHQQKPGQSPKPLIYSASYRYSGVPSRFTGSGSGTDFTLTISNLQPEDFAEYFCQQYNSYPLTFGAGTKLEIK
B2: VH1+VL3: humanized antibody, VH SEQ ID NO: 26, VL SEQ ID NO: 32 (antibody, V domains shown)
VH: B1 VH with V5K, Q43H, L64F, T76I, R84S, S85R
VL: B1 VL with L11V, A13T, K24R
B3: VH3+VL3: humanized antibody, VH SEQ ID NO: 28, VL SEQ ID NO: 32 (antibody, V domains shown)
VH: B1 VH
VL: B1 VL with L11V, A13T, K24R
B4: VH2+VL1: humanized antibody, VH SEQ ID NO: 27, VL SEQ ID NO: 30 (antibody, V domains shown)
VH: B1 VH with L64F, R84S, D89E
VL: B1 VL with P8Q, A13T, K24R
B5: VH4+VL3: humanized antibody, VH SEQ ID NO: 29, VL SEQ ID NO: 32 (antibody, V domains shown)
VH: EVQLKQSGAEVMKPGASVKLSCKATGYTFTGYWIEWVKLAPGHGLEWIGEILPGSGSTNYNEEFQGRVTFTADTSSNTAYMELSRLRSDDTAIYYCARRTYYYGIPEDYWGQGTLVTVSS
VL: B1 VL with L11V, A13T, K24R
B6: VH3+VL1: humanized antibody, VH SEQ ID NO: 28, VL SEQ ID NO: 30 (antibody, V domains shown)
VH: B1 VH
VL: B1 VL with P8Q, A13T, K24R
B7: VH1+VL1: humanized antibody, VH SEQ ID NO: 26, VL SEQ ID NO: 30 (antibody, V domains shown)
VH: B5 VH with L20V, K38R, I48M, E62Q, E63K, S76I
VL: B1 VL with P8Q, A13T, K24R
B8: VH2+VL3: humanized antibody, VH SEQ ID NO: 27, VL SEQ ID NO: 32 (antibody, V domains shown)
VH: B1 VH with L64F, R84S, D89E
VL: B1 VL with L11V, A13T, K24R
B9: VH4+VL1: humanized antibody, VH SEQ ID NO: 29, VL SEQ ID NO: 30 (antibody, V domains shown)
VH: B5 VH
VL: B1 VL with P8Q, A13T, K24R
B10: VH2+VL4: humanized antibody, VH SEQ ID NO: 27, VL SEQ ID NO: 33 (antibody, V domains shown)
VH: B1 VH with L64F, R84S, D89E
VL: B1 VL

Biological target: T1, IL-9 (Homo sapiens, UniProt P15248)
T1 construct: pcDNA3.4-IL9 (19-144)-His (P15248); His (C); made in house; host or cells: 293F cells (transient transfection)
Test: ELISA binding of humanized antibodies to the target antigen
Conditions: ELISA of culture supernatant of 293F cells, control chimeric antibody CA1
Method: ELISA was conducted according to a standard protocol to determine the affinity of a purified antibody for the IL-9-His recombinant protein. In short, the IL-9-His recombinant protein was diluted with sterile PBS and added at 100 μL/well to a 96-well plate. The plate was incubated at 4° C. overnight and then blocked with a blocking buffer. 100 μL of a purified anti-IL-9 antibody serially diluted was added to the plate, and the plate was incubated for 1 h at room temperature. PBS was added to a control well. The plate was washed with PBST 3 times. Then 100 μL of horseradish peroxidase (HRP)-labeled anti-mouse IgG H&L (BIODRAGON, CAT #BF03001) was added, and the plate was incubated for 1 h at room temperature. The plate was washed with PBST 3 times. Then a chromogenic reaction was conducted with a 3,3′,5,5′-tetramethylbenzidine (TMB) chromogenic solution at room temperature. An OD value in each well was read by a microplate reader. Data was processed with PRISM GraphPad, and curves were plotted. The EC50 value for each candidate antibody was calculated.
Humanized antibody expression vectors carrying a designed heavy-chain or light-chain sequence were transiently transfected into 293F cells in pairs, and then a resulting culture supernatant was collected. According to a standard protocol (with reference to part 5.1 in Example 1), with a human-mouse chimeric antibody CA1 constructed with VH and VL of the original murine antibody as a control, the binding of a humanized antibody to a target antigen was detected by ELISA. The method for ELISA was the same as described in 5.1 of Example 1. […] In the follow-up experiments, the four combinations of VH1−VL2, VH1−VL4, VH2−VL4, and VH3−VL4 (hu.CA1 to hu.CA4) were taken as examples for antibody purification and function testing. […]

T1 sequence (P15248 19-144): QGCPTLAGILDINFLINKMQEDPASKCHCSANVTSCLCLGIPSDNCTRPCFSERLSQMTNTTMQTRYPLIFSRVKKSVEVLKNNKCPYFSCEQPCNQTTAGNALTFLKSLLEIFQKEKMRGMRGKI

Molecule	binding to IL-9
B1	bind to IL-9 with high affinity
B2	bind to IL-9 with high affinity
B3	bind to IL-9 with high affinity
B4	bind to IL-9 with high affinity
B5	bind to IL-9 with high affinity
B6	bind to IL-9 with high affinity
B7	bind to IL-9 with high affinity
B8	bind to IL-9 with high affinity
B9	bind to IL-9 with high affinity
B10	bind to IL-9 with high affinity
